Where a chain is given by its changes, count along the chain named.
Tests used:
HMGB1 [1] = target: T1, HMGB1 (Homo sapiens, UniProt P09429); assay: SPR, inhibition of free HMGB1 binding to chip-anchored DNA; conditions: 100 mM Hepes, 50 mM NaCl; 25 °C; unmodified DNA
T1 construct: full-length, expressed in and purified from human HEK293 cells; self-associates into oligomers
T1 sequence (P09429 1-215): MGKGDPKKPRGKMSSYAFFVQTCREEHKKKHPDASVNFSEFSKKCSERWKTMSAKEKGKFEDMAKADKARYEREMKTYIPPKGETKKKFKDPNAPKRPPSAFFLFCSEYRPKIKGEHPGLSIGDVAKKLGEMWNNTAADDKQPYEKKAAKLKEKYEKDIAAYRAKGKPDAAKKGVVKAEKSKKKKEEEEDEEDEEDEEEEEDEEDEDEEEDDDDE

HMGB1 [2] = target: T1, HMGB1; assay: isothermal titration calorimetry; format: binding; conditions: 100 mM Hepes, 50 mM NaCl; single-site model; allosteric ligand
HMGB1 [3] = target: T1, HMGB1; assay: SPR, inhibition of free HMGB1 binding to chip-anchored HMGB1; conditions: 100 mM Hepes, 50 mM NaCl; 25 °C; HMGB1 self-association
Excerpt: SPR, inhibition of free HMGB1 binding to chip-anchored HMGB1 on HMGB1 | inhibitory efficiency of F1,6P on free HMGB1 binding to chip‐anchored HMGB1

HMGB1 A-box (aa1–83) = target: T2, HMGB1 A-box (aa1–83) (Homo sapiens, UniProt P09429); assay: ITC of A-box with C15 peptide, with or without F1,6P; format: binding; conditions: 0.2 mM F1,6P; 100 mM Hepes, 50 mM NaCl; disruption of the A-box - C-tail peptide interaction
T2 construct: A-box domain aa1-83, purified from HEK293 cells; assayed with synthetic C15 peptide (HMGB1 C-tail aa200-214)
T2 sequence (P09429 1-83): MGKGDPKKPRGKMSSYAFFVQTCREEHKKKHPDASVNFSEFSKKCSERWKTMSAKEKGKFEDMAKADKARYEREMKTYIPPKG

[4] = target: GFP(C)-HMGB1-K43/K44A-GFP(N) construct; assay: split-GFP fluorescence complementation in HEK293 cells (Cytation cell imaging reader); conditions: each construct normalised to its own 0 mM value (1.0), read off a plot
[5] = target: T3, HMGB1 A-box (aa1–83), purified (UniProt P09429 1-83); assay: ITC; purified HMGB1 A-box in the cell titrated with free C-tail (15) peptide; 100 mM Hepes, 50 mM NaCl; with or without 0.2 mM F1,6P; single site binding model; conditions: both partners purified
T3 construct: HMGB1 A-box, aa1-83; also called HMG A-box; source: HEK293 cells, expressed and purified
T3 sequence (looked up): T2 sequence (P09429 1-83)

[6] = target: T4, HMGB1 A-box K43/44A, purified (UniProt P09429 1-83, K43/44A | K43/44A); assay: as above; conditions: both partners purified
T4 construct: HMGB1 A-box (aa1-83 as told for the wild-type A-box) with K43 and K44 changed to alanine; also called K43/44A A-box; source: HEK293 cells, expressed and purified
T4 sequence (looked up): T2 sequence (P09429 1-83) with K43A, K44A

## O=P(O)(O)OC[C@H]1OC(O)(COP(=O)(O)O)[C@@H](O)[C@@H]1O (stereo partly drawn) [F1,6P]
HMGB1 [1]
  IC50: 14.1 µM
HMGB1 [2]
  Kd: 28.6 µM
HMGB1 [3]
  IC50: 12.7 µM
HMGB1 A-box (aa1–83)
  ITC of A-box with C15 peptide, with or without F1,6P: C15 peptide displayed good affinity for the A‐box, whereas the interaction was highly disrupted by F1,6P

## GFP(C)-HMGB1(A-B)-linker-HMGB1(C)-GFP(N) fusion protein K43A; K44A
[4]; 1 mM F1,6P, parent: est. 0.83
  response (relative fluorescence intensity): 0.93
[4]; 5 mM F1,6P, parent: est. 0.53
  response (relative fluorescence intensity): 0.92
[4]; 10 mM F1,6P, parent: est. 0.38
  response (relative fluorescence intensity): 0.9

B1: C15 peptide (HMGB1 aa200–214) (peptide, UniProt P09429 200-214, looked up)
peptide: EEDEEDEDEEEDDDD
notes: HMGB1 acidic C-tail, aa200-214; also called C-tail (15) peptide; C-tail (15); source: synthetic peptide
[5]
  binding result: binds
[6]
  binding result: binds

From PMC9982576, “Nuclear Fructose‐1,6‐Bisphosphate Inhibits Tumor Growth and Sensitizes Chemotherapy by Targeting HMGB1” (Advanced Science, 2023)
